Measured values published in publication PMC5058683, “Structural basis for small molecule targeting of the programmed death ligand 1 (PD-L1)” (Oncotarget, 2016).

Biological target: human PD-1 (33-150, Cys93 exchanged to serine) (human, UniProt Q15116 33-150, Cys93 exchanged to serine)
Assay: NMR titration; AIDA assay: 15N-labelled PD-1 (0.2 mM) slightly overtitrated with unlabelled PD-L1; 1H-15N HMQC linewidths; 300 K; complex mass estimated from relaxation time analysis
Conditions: both partners purified

Sequence of human PD-1 (33-150, Cys93 exchanged to serine) (Q15116 other isoform, or with tags, fused parts or gaps Cys93 exchanged to serine | Cys93 exchanged to serine): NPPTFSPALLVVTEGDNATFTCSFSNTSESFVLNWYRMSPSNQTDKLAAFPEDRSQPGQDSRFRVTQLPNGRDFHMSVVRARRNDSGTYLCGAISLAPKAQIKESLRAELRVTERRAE

B1: human PD-L1 (amino acids 18-134) (domain or fragment)
chain: AFTVTVPKDLYVVEYGSNMTIECKFPVEKQLDLAALIVYWEMEDKNIIQFVHGEEDLKVQHSSYRQRARLLKDQLSLGNAALQITDVKLQDAGVYRCMISYGGADYKRITVKVNAPY
notes: human PD-L1 (programmed death ligand 1), amino acids 18-134, the distal extracellular IgG like domain; Cloned into pET-21b; The vector may add a C-terminal His tag with a short linker (surmised), and the deposited entries 5J89 and 5J8O would show it; Made in bacteria, so not glycosylated; Uniformly 15N-labelled in some NMR experiments; also called hPD-L1; programmed death ligand 1
stoichiometry N: 1
